Results as given in publication PMC3524375.

Molecular target: NADPH-cytochrome P450 reductase (UniProt P00388)
UniProt P00388, sequence (P00388 whole entry): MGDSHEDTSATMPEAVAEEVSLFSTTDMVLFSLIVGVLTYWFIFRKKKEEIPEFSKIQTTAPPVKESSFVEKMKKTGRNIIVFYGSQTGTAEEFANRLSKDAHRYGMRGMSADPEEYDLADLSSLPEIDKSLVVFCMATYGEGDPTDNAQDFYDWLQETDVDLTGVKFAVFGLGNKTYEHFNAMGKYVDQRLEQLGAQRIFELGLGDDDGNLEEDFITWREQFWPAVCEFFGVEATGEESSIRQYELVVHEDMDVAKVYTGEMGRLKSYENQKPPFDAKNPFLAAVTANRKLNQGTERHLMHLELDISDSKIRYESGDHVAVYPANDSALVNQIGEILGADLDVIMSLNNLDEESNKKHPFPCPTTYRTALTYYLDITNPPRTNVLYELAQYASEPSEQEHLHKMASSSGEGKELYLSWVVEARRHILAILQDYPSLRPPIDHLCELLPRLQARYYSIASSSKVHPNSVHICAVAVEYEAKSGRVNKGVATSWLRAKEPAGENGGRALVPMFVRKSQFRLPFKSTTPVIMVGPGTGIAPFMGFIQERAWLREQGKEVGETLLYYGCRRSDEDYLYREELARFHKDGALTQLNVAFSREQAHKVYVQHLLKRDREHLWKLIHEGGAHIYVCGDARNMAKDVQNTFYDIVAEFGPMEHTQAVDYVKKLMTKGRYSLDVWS

Row | % of CPR-dependent versus dithionite-dependent reduced P450-CO spectrum | Substance
1 | 88% | human cytochrome P450 3A4, wild type, untreated (from UniProt P08684 1-503) (enzyme)
2 | 41% | CYP3A4 Y430F mutant (from UniProt P08684 1-503) (enzyme)
3 | 22% | CYP3A4 Y430V mutant (from UniProt P08684 1-503) (enzyme)
